Experiment [1] addresses T1, 91-105aa.
T1 construct: also called alpha-synuclein peptide 91-105
T1 peptide: {Biotin-Ahx}-ATGFVKKDQLGKNEE
The experiment can be described thus: 15-mer peptide ELISA. For orientation: In an ELISA, binding on a coated surface is turned into a signal by an enzyme label.
Description: (§1) Epitope mapping for the antibodies derived from stable hybridoma clones was determined using an indirect ELISA on a library of 15-mer peptides covering the entire sequence of human alpha-synuclein from 1 to 140aa. […] Results are expressed as optical density (O.D.). Each bar represents data for an individual antibody.
(§2) Serum-free supernatants were harvested from stable hybridomas. The supernatants containing antibodies of interest were then screened by an indirect ELISA assay to determine epitopes. Epitopes were first determined using a library of 15-mer peptides covering the entire sequence of human alpha-synuclein protein, spanning amino acids (aa) 1-140 with 9aa offset and 6aa overlap. […] Briefly, streptavidin-coated ELISA plates were blocked overnight at 4° C. […] Plates were washed with PBS/0.05% Tween® 20 and then incubated with the hybridoma supernatants at 1/100 dilution for 1 hour at 25° C. […] After final wash, plates were incubated 2 hours at 25° C. with alkaline phosphatase substrate (p-nitrophenyl phosphate disodium hexahydrate; pNPP, S0942, Sigma) and read the absorbance optical density (O.D.) signal at 405 nm using an ELISA plate reader (Tecan, Switzerland).

Experiment [2] addresses T2, 1-15aa.
T2 construct: also called alpha-synuclein peptide 1-15
T2 peptide: {Biotin-Ahx}-MDVFMKGLSKAKEGV
The experiment can be described thus: 15-mer peptide ELISA.
Description: as §1, §2

Experiment [3] concerns the target T3, 37-51aa.
T3 construct: also called alpha-synuclein peptide 37-51
T3 peptide: {Biotin-Ahx}-VLYVGSKTKEGVVHG
The experiment can be described thus: 15-mer peptide ELISA.
Description: as §1, §2

Experiment [4] addresses T4, 82-96aa.
T4 construct: also called alpha-synuclein peptide 82-96
T4 peptide: {Biotin-Ahx}-VEGAGSIAAATGFVK
The experiment can be described thus: indirect ELISA on biotinylated 15-mer peptide (streptavidin plate), supernatant 1/100.
Description: as §1, §2

Experiment [5] deals with T4, 82-96aa. The experiment can be described thus: 15-mer peptide ELISA.
Description: as §1, §2
Experiment [6] has as its target T1, 91-105aa. The experiment can be described thus: 15-mer peptide ELISA.
Description: as §1, §2
Experiment [7] deals with T5, 109-123aa.
T5 peptide: {Biotin-Ahx}-QEGILEDMPVDPDNE
The experiment can be described thus: 15-mer peptide ELISA.
Description: as §1, §2

The target in experiment [8] is T6, 100-114aa.
T6 peptide: {Biotin-Ahx}-LGKNEEGAPQEGILE
The experiment can be described thus: indirect ELISA on biotinylated 15-mer peptide (streptavidin plate), supernatant 1/100.
Description: as §1, §2

Experiment [9] addresses T4, 82-96aa. The experiment can be described thus: 15-mer peptide ELISA.
Description: as §1, §2
Experiment [10] addresses T3, 37-51aa. The experiment can be described thus: indirect ELISA on biotinylated 15-mer peptide (streptavidin plate), supernatant 1/100.
Description: as §1, §2
Experiment [11] has as its target T5, 109-123aa. The experiment is described as above.
Description: as §1, §2

Where two headings read alike, the source gives them in different places. Where no end group is shown, it is not given here. The star is where a group is joined. Biotin = O=C1N[C@H]2[C@H](CS[C@H]2CCCCC(=O)*)N1; Ahx = NCCCCCC(=O)O

B1: ACI-7089-4418F6-Ab1 (antibody, V domains shown)
VH: QVQLQQSGAELARPGASVKVSCKASGYTFTSSGISWLKHRTGQGLEWIGDIYPRSGNTYYNEKFKDKATLTADKSSSTAYMELRSLTSEDSAVYFCSSGNYWGQGTTLTVSS
VL: DIVITQDDLSNPVTSGESVSISCRSSKSLLYKDGKTYLNWFLQRPGQSPQLLIYLMSTRASGVSDRFSGSGSGTDFTLEISRVKAEDVGVYYCQQLLEYPLTFGAGTKLELK
notes: mouse hybridoma mAb; also called 4418F6G7
Consider B1, for which the binding result is on record as “no binding (tested: supernatant 1/100)” in [1], “no binding (tested: supernatant 1/100)” in [2], “no binding (tested: supernatant 1/100)” in [3] and “binds” in experiment [4].

B2: ACI-7089-4418C5-Ab1 (antibody, V domains shown)
VH: DGQLQESGPGLVKPSQSLSLTCSVTGYSITSGYYWNWIRQFPGNKLEWMGYINYDGSNNYNPSLKNRISITRDTSKNQFFLKFNFVTTEDTATYYCVRGDVYWGQGTTLTVSS
VL: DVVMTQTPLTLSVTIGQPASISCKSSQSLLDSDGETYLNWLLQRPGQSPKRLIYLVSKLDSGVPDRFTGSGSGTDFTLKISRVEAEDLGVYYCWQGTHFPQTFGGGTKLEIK
notes: mouse hybridoma mAb; also called 4418C5G1
Turning to B2, the binding result in [4] is listed as “binds”.

B3: ACI-7089-4409F1-Ab1 (antibody, V domains shown)
VH: DVQLQESGPGLVKPSQSLSLTCSVTGYSITRGYYWNWIRQFPGNKLEWMGYISYDGSNNYNPSLRNRISITRDTSKNQFFLKLKSVTTEDTATYFCARGDSNWGQGTTLTVSA
VL: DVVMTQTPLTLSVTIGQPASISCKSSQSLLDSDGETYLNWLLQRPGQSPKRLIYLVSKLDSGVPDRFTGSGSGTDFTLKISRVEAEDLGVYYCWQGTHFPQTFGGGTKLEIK
notes: mouse hybridoma mAb; also called 4409F1A8
On to B3, for which the results for the binding result in experiment [2], in experiment [3] and in experiment [4] were “no binding (tested: supernatant 1/100)”, “no binding (tested: supernatant 1/100)” and “binds”, respectively.

B4: ACI-8033-18D12-Ab1 (antibody, V domains shown)
VH: QVQLQQPGAELVKPGASVKMSCKASGYTFTSYWITWVRQRPGQGLDWIGDIYPGGGVTNYNEKFKTKATLTVDTSSSTAYMHLSSLTSEDSAVYFCATAQTTFAHWGQGTLVTVSA
VL: DVLMTQTPLSLPVSLGDQASISCRSSQNIAHNNGNTYLEWYLQKPGQSPKLLIYKVSNRFSGVPDRFSGSGSGTDFTLKISRVEAEDLGVYYCFQGSHVPRTFGGGTKLEIK
notes: mouse hybridoma mAb; also called 917.18D12F10D6
As for B4, the binding result is given as “no binding (tested: supernatant 1/100)” in [5], “no binding (tested: supernatant 1/100)” in experiment [6], “no binding (tested: supernatant 1/100)” in experiment [7] and “binds” in experiment [8].

B5: ACI-7088-4303A3-Ab1 (antibody, V domains shown)
VH: QVQLQQSGAELVRPGASVTLSCKASGYTFTDYEMHWVKQTPVHGLEWIGVIDPETGGAVQNQKFKGKAILTADNSSSTAYMDLRSLTSEDSAVYNCAMGAALRLAYWGQGTLVTVSS
VL: DVLMTQTPLSLPVSLGDQASISCRSSQSIVHSNGNSYLEWYLQKPGQSPKLLIYKVSNRFSGVPDRFSGSGSGTDFTLKINRVEAEDLGVYYCFQGSHVPFTFGSGTKLEIK
notes: mouse hybridoma mAb; also called 4303A3E4
As to B5, the binding result in experiment [9] was “no binding (tested: supernatant 1/100)”; in experiment [1], “no binding (tested: supernatant 1/100)”; in [2], “no binding (tested: supernatant 1/100)”; in experiment [10] it was “binds”.

B6: ACI-8033-5A12-Ab1 (antibody, V domains shown)
VH: QVHLKQSGADLVRPGASVKLSCKASGYTFTDYYINWVKQRPGQGLEWIARIYPGSGNTYYNEKFKGRATLSAEKSSTTAYMQLSSLTSEDSAVYFCVVGYYGAWGQGTTLTVSS
VL: DVVMTQTPLSLPVSLGDQASISCRSSQSLVHSNGKTHLHWYLQKPGQSPKLLIYKVSNRFSGVPDRFSGSGSGTDFTLKISRVEAEDLGVYFCSQSTHVPWTFGGGTKLEIK
notes: mouse hybridoma mAb; also called 917.5A12A11C9
On to B6, for which the binding result is listed as “no binding (tested: supernatant 1/100)” in experiment [5], “no binding (tested: supernatant 1/100)” in experiment [6], “binds” in [11] and “binds” in [8].

The values are drawn from patent US20220298231A1 (AC IMMUNE, published 2022).
